# Assays:
# [1] = circular dichroism melting experiments; assay type: physicochemical; conditions: 0.1 mg/ml, 20 mM sodium phosphate buffer pH 7, 20-95° C. at 1° C./min
# Description: CD experiments for wild-type (WT) and active-site mutants were performed on a Chirascan CD spectrometer (Applied Photophysics) equipped with a thermoelectrically controlled cell holder. CD spectra were obtained in the far-UV range (190-260 nm) in a 1 mm path length quartz cuvette at 1 nm steps with 5 second signal averaging per data point. Spectra were collected in triplicate, followed by averaging, baseline subtraction, smoothing and conversion to mean residue ellipticity (MRE) by the Pro-Data software (Applied Photophysics). Secondary structure prediction was performed using the Provencher and Glockner method (Provencher S W & Glockner J (1981) Estimation of globular protein secondary structure from circular dichroism. Biochemistry 20(1):33-7) provided by DICHROWEB (Whitmore L & Wallace B A (2004) DICHROWEB, an online server for protein secondary structure analyses from circular dichroism spectroscopic data. Nucleic Acids Res 32:W668-73).
# Melting experiments were performed by heating PlyGRCS at a 0.1 mg/ml concentration in 20 mM sodium phosphate buffer pH 7 from 20° C. to 95° C. using a 1° C./min heating rate. MRE was monitored at 218 nm in a 1 mm path length quartz cuvette at 0.5° C. steps with 5 second signal averaging per data point. The melting data was smoothed, normalized and fit with a Boltzmann sigmoidal curve. The first derivative of the melting curve was then taken to determine the temperature (Tm) at which the folded and unfolded protein species in solution were at equilibrium (Fallas J A & Hartgerink J D (2012) Computational design of self-assembling register-specific collagen heterotrimers. Nat Commun 3:1087).
# [2] = system: S. aureus cell walls (purified peptidoglycan); conditions: 50 μg/ml, one hour, 37° C.
# [3] = system: stationary phase S. aureus NRS-14; test: turbidity reduction assay (lytic activity); assay type: cell-based, Staphylococcus aureus; conditions: for decrease in optical density: 15 minutes
# Description: Lytic activity was based on turbidity reduction assay (Nelson D C et al. (2012) Endolysins as antimicrobials. Adv Virus Res 83:299-365). Briefly, bacterial cells were centrifuged (4,000 RPM, 5 minutes, 4° C.), re-suspended in buffer and mixed 1:1 (v/v) with endolysin to a final OD600=1. OD600 readings were taken every 15 seconds for 20 minutes at 37° C. Endolysin activity was equated to the Vmax dictated by the linear portion of the resulting killing curve. Each experiment was performed in triplicate.
# To determine dose response, PlyGRCS was serially diluted and each dosage (100 μl) was added in triplicate to a 96-well polystyrene microtiter plate (Nest Biotech Co, Ltd) just before addition of bacterial cells (100 μl) according to the turbidity reduction assay described above. For optimum pH determination, bacterial cells were suspended in 40 mM boric acid/phosphoric acid (BP) buffer, pH 3-11, and were challenged against PlyGRCS. The influence of NaCl on PlyGRCS activity was tested in BP buffer at the experimentally determined pH optimum using the same assay. The effect of divalent cations was determined using the turbidity reduction assay with several modifications. First, PlyGRCS was incubated at room temperature in PBS or PBS supplemented with 5 mM EDTA for 10 minutes. Second, the EDTA-treated samples received either no further treatment, or were supplemented with 6 mM CaCl2 or 6 mM MgCl2. Finally, the lytic active of the samples was then immediately assayed and compared to PlyGRCS in PBS prior to EDTA inactivation. Kinetic stability was evaluated (Son B et al. (2012) Characterization of LysB4, an endolysin from the Bacillus cereus-infecting bacteriophage B4. BMC Microbiol 12:33) with minor modifications. Lytic assays were performed in optimal conditions after PlyGRCS was incubated at indicated temperatures for 30 minutes and subsequently recovered on ice for 5 minutes.
# [4] = system: S. aureus NRS-14 static biofilms; test: biofilm assay (crystal violet staining); assay type: cell-based, Staphylococcus aureus; conditions: 6.25 μg/ml, 1 hour, 1 day biofilms
# Description: An overnight culture of S. aureus NRS-14 (1 ml per well) was placed into 24-well CELLBIND plates (Corning) containing 500 μl of TSB per well. After an additional 24 hour incubation at 37° C., media was aspirated and samples were washed with PBS to remove unattached cells. Two-fold serial dilutions of PlyGRCS in triplicate were added in 1 ml BP buffer pH 7 and incubated at 37° C. for one hour. Liquid was aspirated and samples were washed with distilled water before drying. Biofilms were stained with 0.01% crystal violet for 10 min at room temperature. After removing the excess crystal violet, samples were washed with PBS and dried before the addition of 1 ml 10% SDS to extract the crystal violet from the biomass for quantification at OD595.
# [5] = system: SA113 ΔtagO cell walls (staphylococcal peptidoglycan); test: cleavage analysis by mass spectrometry; assay type: biochemical, Staphylococcus aureus; conditions: 50 μg/ml, 18 hours, ESI-MS of digest
# Description: Briefly, SA113 ΔtagO cell walls (Atilano M L et al. (2010) Teichoic acids are temporal and spatial regulators of peptidoglycan cross-linking in Staphylococcus aureus. Proc Natl Acad Sci USA 107(44):18991-6; Weidenmaier C et al. (2004) Role of teichoic acids in Staphylococcus aureus nasal colonization, a major risk factor in nosocomial infections. Nat Med 10(3):243-5) were digested in 25 mM Tris, 200 mM NaCl, pH 7.4 at 37° C. for 18 hours with 50 μg/ml of PlyGRCS, filtered through 5000-MW cutoff Vivaspin 500 units (Sartorius North America Inc., Bohemia, N.Y.), and desalted using C18 Zip Tips (Millipore, Zug, Switzerland). Controls included peptidoglycan digested with the amidase domain of 2638A, a known N-acetylmuramoyl-L-alanine amidase, or undigested peptidoglycan. To further define the PlyGRCS cut site, double digests with PlyGRCS and a truncation construct containing only the CHAP domain of LysK (CHAP-K), a D-alany-glycyl endopeptidase were performed. The samples were eluted from the Zip Tips with 50:50:0.01 (v/v/v) CH3OH:H2O:[…] (pH˜2), and NanoESI-MS analysis was performed on a Q-TOF Ultima API mass spectrometer (Micromass, UK).
# [6] = highest dose of 28 to 1.75 μg/ml dose response
molecule,measurement,setting,value
"PlyGRCS: endolysin of bacteriophage GRCS (ORF15), amino acids 1-250, SEQ ID NO: 5, C-terminal 6× His tag (protein, C-terminal 6xHis tag; Synthetically generated polypeptide (PlyGRCS phage (S. aureus))) MKSQQQAKEWIYKHEGTGVDFDGAYGFQCMDLAVAYVYYITDGKVRMWGNAKDAINNDFKGLATVYENTPSFKPQLGDVAVYTNSQYGHIQCVISGNLDYYTCLEQNWLGGGFDGWEKATIRTHYYDGVTHFIRPKFSASNSNVLETSKVNTFGNWKQNQYGTYYRNENATFTCGFLPIFARVGSPKLSEPNGYWFQPNGYTPYDEVCLSDGLVWIGYNWQGTRYYLPVRQWNGKTGNSYSIGLPWGVFS",Tm,[1],43.5 °C
same,free amine release (amidase/endopeptidase activity),[2],free amines were detected
same,decrease in optical density,[3]; 25 μg/mL,70%
same,"lytic activity of EDTA-treated enzyme with excess CaCl2, compared to prior to EDTA treatment",[3]; 5 mM EDTA then 6 mM CaCl2,nearly twice the lytic activity
same,lytic activity of EDTA-treated enzyme with magnesium,[3]; 5 mM EDTA then 6 mM MgCl2,mimicked that of the EDTA-treated sample
same,lytic activity after EDTA treatment,"[3]; 5 mM EDTA, 10 minutes",devoid of lytic activity
same,decrease in activity by NaCl,"[3]; 500 mM NaCl, BP buffer pH 7.0",~35%
same,optimal pH for lytic activity,"[3]; BP buffer, pH range 3.0 to 11.0",7.0
same,time to 50% decrease in optical density,[3]; [6],< 10 min
same,decrease in optical density,[3]; [6],70%
same,decrease in biofilm biomass,[4],~50%
same,hydrolytic activities (cleavage specificity),[5],both N-acetylmuramoyl-L-alanine amidase and D-alanyl-glycyl endopeptidase hydrolytic activities

# — US9872893B2, “Endolysins active against Staphylococcus bacteria, pharmaceutical compositions, and methods relating thereto” (priority 2014, dated 2018)
